Data: patent publication US20220396627A1 (VERSEAU THERAPEUTICS, published 2022)

B1: 13H10 mouse/human chimeric antibody (human IgG4 S228P, kappa) (antibody, V domains shown)
VH: QVQLQQPGAELVKPGASVKLSCKASGYTFTSYWMYWVKQRPGQGLDLIGEINPSNGGTNYNEKFKSKATLTVDKSSGTAYMQLSSLTSEDSAVYYCAIWKDYYGISYEDWYFDVWGTGTTVTVSS
VL: DILLTQSPAILSVSPGERVSFSCRASQSIGTSIHWYQQRTNGSPRLLIKYASESISGIPSRFSGSGSGTDFTLSINSVESEDIADYYCQQSNSWPLTFGAGTKLELKR
notes: 13H10 is deposited as ATCC PTA-125944
B2: 13J19 mouse/human chimeric antibody (human IgG4 S228P, kappa) (antibody, V domains shown)
VH: QVQLKESGPGLVAPSQSLSITCTVSGFSLTSYGVSWVRQPPGKGLEWLGVVWRDGTTNYHSALISRLSISKDNSKSQVFLKLNSLQTDDTATYYCARPYYGFFDYWGQGTTLTVSS
VL: SIVMTQTPKFLLVSAGDRVTVTCKASQSVSNAVAWYQQKPGQSPKLLIYYASNRYTGVPDRFTGSGYGTDFTFTISTVQAEDLAVYFCQQNYNSPYTFGGGTKLEIKR
notes: 13J19 is deposited as ATCC PTA-125945
B3: 2E23 (antibody, V domains shown)
VH: QVQLQQPGAELVKPGASVKLSCKASGYTFTSYWMHWVKQRPGQGLEWIGEINPSNGGTNYNEKFKSKATLTVDKSSSTAYMQLSSLTSEDSAVYYCTIYYGDYSYPIDYWGQGTSVTVSS
VL: QIVLTQSPAIMSASPGEKVTLTCSASSSVSSSYLYWYQQKPGSSPKLWIYSTSNLASGVPTRFSGSGSGTSYCLTISSMETEDAASYFCHQYSSYPFTFGSGTKLEIK
B4: 3L02 mouse/human chimeric antibody (human IgG4 S228P, kappa) (antibody, V domains shown)
VH: DVQLQESGPGMVKPSQSLSLTCTVTGYSITSGYDWHWIRHFPGNKLEWMGYISYSAGTNYNPSLKSRISITHDTSKNHFFLKLNSVTTEDTATYYCAREGLTAYWYFDVWGTGTTVTVSS
VL: DIVMTQSQKFMSTSVGDRVSVTCKASQTVGTNVAWYQQKPGQSPKPLIYSASYRYSGVPDRFTGSGSGTDFTLTISNVQSEDLAEYFCQQYDSFPLTFGSGTKLEIKR

Assays:
[1] = target: T1, Recombinant cyno Siglec-9-His (cynomolgus macaque); experiment: BLI (Octet Red384), chimeric antibody on AHC sensor, His-tagged analyte
T1 construct: also called Cynomolgus Monkey SIGLEC9-HIS
T1 sequence (chain, as listed by the source limits assumed): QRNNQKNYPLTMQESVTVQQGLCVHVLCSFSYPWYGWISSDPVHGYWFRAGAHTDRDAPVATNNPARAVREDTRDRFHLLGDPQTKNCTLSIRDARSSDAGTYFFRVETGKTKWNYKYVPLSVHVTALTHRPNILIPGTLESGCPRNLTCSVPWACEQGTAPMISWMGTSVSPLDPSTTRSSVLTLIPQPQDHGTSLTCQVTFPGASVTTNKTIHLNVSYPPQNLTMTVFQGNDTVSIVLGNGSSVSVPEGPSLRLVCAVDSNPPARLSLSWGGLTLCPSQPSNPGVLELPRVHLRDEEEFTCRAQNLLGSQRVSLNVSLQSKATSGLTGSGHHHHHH
Description: (§1) The binding affinity of chimeric antibodies was determined by biolayer interferometry (BLI), using a ForteBio Octet Red384 system. All samples were prepared in black 96-well flat bottom plates (Greiner, Cat. #655209) diluted in kinetics buffer (lx DPBS (Gibco, Cat. #LS14190250) containing 0.1% bovine serum albumin, 0.05% sodium azide, and 0.02% Tween®20). Anti-SIGLEC-9 antibodies (ligand) were diluted to a final concentration of 10 ug/mL and captured on anti-human IgG Fc capture (AHC) biosensors (ForteBio, Cat. #18-5060). […] Biosensors were rehydrated prior to the assay in kinetics buffer for 10 minutes and then equilibrated in kinetics buffer for 60 seconds. Antibody was then immobilized for 300 seconds followed by a 120 second baseline wash in fresh kinetics buffer, 300 second analyte association, and 300 second dissociation in the same buffer wells as the baseline wash step. All assay steps occurred at 30° C. with an acquisition rate of 5.0 Hz
(§2) Processing parameters included double reference subtraction, with human IgG4 used as an isotype control for reference sensor subtraction and immobilized ligand in kinetics buffer with no analyte used for reference sample subtraction. Y-axis data was aligned to the average baseline step for the last 5 seconds and all steps were inter-step corrected to the start of the dissociation step. High frequency noise was removed using Savitzky-Golay filtering and final fitting was a 1:1 global binding model to both association and dissociation.

[2] = target: T2, Recombinant human Siglec-7-His (human, UniProt Q9Y286 19-353, limits assumed); experiment: as above
T2 sequence (Q9Y286 19-353 limits assumed): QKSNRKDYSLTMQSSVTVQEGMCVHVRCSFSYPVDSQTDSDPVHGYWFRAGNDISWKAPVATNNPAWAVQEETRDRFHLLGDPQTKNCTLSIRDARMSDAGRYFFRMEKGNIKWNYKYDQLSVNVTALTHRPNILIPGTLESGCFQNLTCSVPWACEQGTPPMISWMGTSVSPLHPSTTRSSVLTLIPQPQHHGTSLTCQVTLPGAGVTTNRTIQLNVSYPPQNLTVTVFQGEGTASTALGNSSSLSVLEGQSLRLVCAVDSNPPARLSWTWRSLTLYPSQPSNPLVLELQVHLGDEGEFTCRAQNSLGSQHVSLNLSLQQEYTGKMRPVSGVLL
Description: as §1, §2

[3] = target: T3, Recombinant human Siglec-9-His (human, UniProt Q9Y336 18-348); experiment: BLI (Octet Red384), chimeric antibody on AHC sensor, His-tagged analyte 100-1.56 nM, 1:1 global fit
T3 construct: The entry begins at QTSK... like the Q18-G348 extracellular domain of the Fc fusion and ends in GSG and a His tag
T3 sequence (Q9Y336 other isoform, or with tags, fused parts or gaps limits assumed): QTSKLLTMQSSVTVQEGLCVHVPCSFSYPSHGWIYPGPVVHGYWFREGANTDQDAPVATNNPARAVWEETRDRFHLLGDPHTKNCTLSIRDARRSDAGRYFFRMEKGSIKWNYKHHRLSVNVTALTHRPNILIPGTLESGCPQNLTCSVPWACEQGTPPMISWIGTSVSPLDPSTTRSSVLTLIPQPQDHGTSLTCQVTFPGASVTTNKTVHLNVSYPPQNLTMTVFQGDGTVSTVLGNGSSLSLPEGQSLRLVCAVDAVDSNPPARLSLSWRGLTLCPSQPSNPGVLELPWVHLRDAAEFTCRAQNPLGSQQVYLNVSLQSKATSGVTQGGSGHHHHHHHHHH
Description: as §1, §2

[4] = target: T1, Recombinant cyno Siglec-9-His; experiment: as above
Description: as §1, §2

[5] = target: T2, Recombinant human Siglec-7-His; experiment: as above
Description: as §1, §2

[6] = target: Human Siglec-9-Fc (recombinant human Siglec-9 extracellular domain Q18-G348 fused to human IgG1 Fc) (human); experiment: ELISA: plate coated with 1 ug/mL human Siglec-9-Fc, antibody at 100 nM, HRP anti-mouse Fc secondary, RLU
Chain of Human Siglec-9-Fc (recombinant human Siglec-9 extracellular domain Q18-G348 fused to human IgG1 Fc) (human) (chain, as listed by the source limits assumed): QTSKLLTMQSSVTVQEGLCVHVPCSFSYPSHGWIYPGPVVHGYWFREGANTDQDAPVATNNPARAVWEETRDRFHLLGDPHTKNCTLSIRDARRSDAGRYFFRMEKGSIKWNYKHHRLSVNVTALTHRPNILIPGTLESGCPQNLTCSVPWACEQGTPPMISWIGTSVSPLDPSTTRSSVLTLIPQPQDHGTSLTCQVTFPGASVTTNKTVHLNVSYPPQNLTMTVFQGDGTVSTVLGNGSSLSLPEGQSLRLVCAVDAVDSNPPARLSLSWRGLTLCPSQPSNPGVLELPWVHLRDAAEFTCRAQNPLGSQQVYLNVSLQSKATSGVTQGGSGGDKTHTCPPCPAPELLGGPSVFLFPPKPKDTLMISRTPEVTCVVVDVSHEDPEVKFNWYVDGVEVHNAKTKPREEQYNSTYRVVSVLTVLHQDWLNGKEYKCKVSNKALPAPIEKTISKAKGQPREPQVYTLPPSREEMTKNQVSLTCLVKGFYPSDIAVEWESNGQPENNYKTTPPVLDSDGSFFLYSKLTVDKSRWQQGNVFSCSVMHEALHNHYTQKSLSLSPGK
Description: ELISA plates (384-well) were coated with 1 ug/mL indicated SIGLEC protein at room temperature. The plates were washed with PBS with 0.1% Tween®20, pH 7.4 and blocked with TBS containing 3% BSA. The plates were washed and incubated with anti-SIGLEC9 antibody diluted to 100 nM. Plates were washed and incubated with HRP-coupled anti-mouse Fc secondary antibody. Plates underwent a final wash and were incubated with HRP substrate. Readout was performed using a POLARstar Omega Microplate Reader (BMG LAPTECH).

Binder	binding result [1]	binding result [2]	Kd [3]	Kd [4]	Kd [5]	binding result [6]
B1	no binding (tested: analyte titrated from 100 nM to 1.56 nM)	no binding (tested: analyte titrated from 100 nM to 1.56 nM)	2.6 pM	–	–	–
B2	–	–	2.1 pM	6.8 pM	20000 pM	–
B3	–	–	–	–	–	binds
B4	no binding (tested: analyte titrated from 100 nM to 1.56 nM)	no binding (tested: analyte titrated from 100 nM to 1.56 nM)	4.4 pM	–	–	–
